What was measured:
Settings in all cases: protein: recombinant; tags: N-terminal GST (pGEX-6P-2); label: 6-FAM; blunt
[1] = target: T1, FOXC2 DBD H122K (UniProt Q99958 72-172, H122K); test: fluorescence anisotropy; pH 7.0; 20 mM HEPES, 140 mM KCl, 0.05 mM TCEP-HCl, pH 7.0 or 7.5 (pH titration 6.8-8.2), room temperature 30 min, 7.5 nM FAM-DNA
T1 sequence: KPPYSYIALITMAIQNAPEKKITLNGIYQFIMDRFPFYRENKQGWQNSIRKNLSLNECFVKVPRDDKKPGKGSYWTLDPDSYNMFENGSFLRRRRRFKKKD

[2] = target: T1, FOXC2 DBD H122K; test: fluorescence anisotropy; pH 7.5; 20 mM HEPES, 140 mM KCl, 0.05 mM TCEP-HCl, pH 7.0 or 7.5 (pH titration 6.8-8.2), room temperature 30 min, 7.5 nM FAM-DNA
[3] = target: T2, FOXC2 DBD H122N (UniProt Q99958 72-172, H122N); test: fluorescence anisotropy; pH 7.0; 20 mM HEPES, 140 mM KCl, 0.05 mM TCEP-HCl, pH 7.0 or 7.5 (pH titration 6.8-8.2), room temperature 30 min, 7.5 nM FAM-DNA
T2 sequence: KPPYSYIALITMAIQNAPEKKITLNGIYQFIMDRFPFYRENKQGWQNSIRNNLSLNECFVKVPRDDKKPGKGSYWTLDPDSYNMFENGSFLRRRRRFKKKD

[4] = target: T3, FOXM1 DBD WT (UniProt Q08050 222-360); test: fluorescence anisotropy; pH 7.0; higher affinity than at pH 7.5; 20 mM HEPES, 140 mM KCl, 0.05 mM TCEP-HCl, pH 7.0 or 7.5 (pH titration 6.8-8.2), room temperature 30 min, 7.5 nM FAM-DNA
T3 sequence: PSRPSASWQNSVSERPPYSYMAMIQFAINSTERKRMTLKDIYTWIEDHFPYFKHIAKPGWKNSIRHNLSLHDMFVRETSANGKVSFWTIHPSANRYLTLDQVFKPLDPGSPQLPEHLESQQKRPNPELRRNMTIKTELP

[5] = target: T4, FOXC2 DBD WT (UniProt Q99958 72-172); test: as above
T4 sequence: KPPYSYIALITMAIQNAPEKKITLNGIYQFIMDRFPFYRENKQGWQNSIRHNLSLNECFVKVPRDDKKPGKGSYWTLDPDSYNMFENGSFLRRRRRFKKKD

[6] = target: T5, FOXN1 DBD WT (UniProt O15353 270-366); test: as above
T5 sequence: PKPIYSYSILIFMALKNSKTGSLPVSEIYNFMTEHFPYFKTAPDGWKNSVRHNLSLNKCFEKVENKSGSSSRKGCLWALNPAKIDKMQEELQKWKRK

[7] = target: T6, FOXM1 DBD H287K (UniProt Q08050 222-360, H287K); test: fluorescence anisotropy; pH 7.0; 20 mM HEPES, 140 mM KCl, 0.05 mM TCEP-HCl, pH 7.0 or 7.5 (pH titration 6.8-8.2), room temperature 30 min, 7.5 nM FAM-DNA
T6 sequence: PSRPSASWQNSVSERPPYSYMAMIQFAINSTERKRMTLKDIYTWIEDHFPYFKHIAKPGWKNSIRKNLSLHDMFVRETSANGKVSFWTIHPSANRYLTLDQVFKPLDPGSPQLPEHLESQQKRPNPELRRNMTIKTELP

[8] = target: T6, FOXM1 DBD H287K; test: fluorescence anisotropy; pH 7.5; 20 mM HEPES, 140 mM KCl, 0.05 mM TCEP-HCl, pH 7.0 or 7.5 (pH titration 6.8-8.2), room temperature 30 min, 7.5 nM FAM-DNA
[9] = target: T2, FOXC2 DBD H122N; test: fluorescence anisotropy; pH 7.5; similar to WT at pH 7.5; 20 mM HEPES, 140 mM KCl, 0.05 mM TCEP-HCl, pH 7.0 or 7.5 (pH titration 6.8-8.2), room temperature 30 min, 7.5 nM FAM-DNA

B1: FkhP (dsDNA)
DNA 1: CCATAAACAAC
DNA 2: GTTGTTTATGG
Ka [1]: 0.86 ± 0.15 μM (as printed; KA = 1/KD, so presumably μM^-1) | Ka [2]: 0.91 ± 0.08 μM (as printed; KA = 1/KD, so presumably μM^-1) | Ka [3]: 0.14 ± 0.03 μM (as printed; KA = 1/KD, so presumably μM^-1) | binding result [4]: binds | binding result [5]: binds | binding result [6]: binds | Ka [7]: 4.1 ± 0.81 μM (as printed; KA = 1/KD, so presumably μM^-1) | Ka [8]: 1.8 ± 0.27 μM (as printed; KA = 1/KD, so presumably μM^-1) | Ka [9]: 0.1 ± 0.01 μM (as printed; KA = 1/KD, so presumably μM^-1)

— PMC12135187, “A role for pH dynamics regulating transcription factor DNA-binding selectivity”
